Laboratory results taken from patent US20160355588A1 (published 2016).
Where two headings read alike, the source gives them in different places. Each block holds one binder with its values, some of them ahead of it.

Assays:
CD3 on Jurkat T cells [1] = target: T1, CD3 on Jurkat T cells (human, UniProt P07766 23-207); experiment: whole cell binding
CD3 on Jurkat T cells [2] = target: T1, CD3 on Jurkat T cells; experiment: whole cell binding; remark: listed apart in the source
CD3 on Jurkat T cells [3] = target: T1, CD3 on Jurkat T cells
CD3 on Jurkat T cells [4] = target: T1, CD3 on Jurkat T cells; remark: listed apart in the source
v6475 = experiment: whole cell binding
v1653 = experiment: whole cell binding

B3: Raji B cells (receptor)
chain: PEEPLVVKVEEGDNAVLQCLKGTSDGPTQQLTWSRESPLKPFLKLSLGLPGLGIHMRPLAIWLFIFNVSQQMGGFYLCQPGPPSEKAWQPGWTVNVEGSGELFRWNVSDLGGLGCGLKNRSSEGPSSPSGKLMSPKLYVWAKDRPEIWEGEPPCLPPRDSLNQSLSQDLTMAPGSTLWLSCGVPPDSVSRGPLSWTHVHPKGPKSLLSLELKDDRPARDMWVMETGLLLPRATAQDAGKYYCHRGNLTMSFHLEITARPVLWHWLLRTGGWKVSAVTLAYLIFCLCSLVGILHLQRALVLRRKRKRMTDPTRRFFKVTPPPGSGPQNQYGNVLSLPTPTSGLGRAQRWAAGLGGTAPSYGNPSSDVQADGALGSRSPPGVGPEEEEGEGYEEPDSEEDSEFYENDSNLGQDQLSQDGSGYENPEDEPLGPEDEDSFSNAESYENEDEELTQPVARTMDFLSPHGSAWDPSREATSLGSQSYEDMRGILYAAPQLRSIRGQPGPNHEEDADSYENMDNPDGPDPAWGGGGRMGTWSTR
- Kd (v6475): 1.5 nM
- Kd (v1653): 1.4 nM

B4: v1853 (bispecific antibody)
heavy: QVQLVQSGGGVVQPGRSLRLSCKASGYTFTRYTMHWVRQAPGKGLEWIGYINPSRGYTNYNQKVKDRFTISRDNSKNTAFLQMDSLRPEDTGVYFCARYYDDHYCLDYWGQGTPVTVSSASTKGPSVFPLAPSSKSTSGGTAALGCLVKDYFPEPVTVSWNSGALTSGVHTFPAVLQSSGLYSLSSVVTVPSSSLGTQTYICNVNHKPSNTKVDKKVEPKSCDKTHTCPPCPAPELLGGPSVFLFPPKPKDTLMISRTPEVTCVVVDVSHEDPEVKFNWYVDGVEVHNAKTKPREEQYNSTYRVVSVLTVLHQDWLNGKEYKCKVSNKALPAPIEKTISKAKGQPREPQVYVYPPSRDELTKNQVSLTCLVKGFYPSDIAVEWESNGQPENNYKTTPPVLDSDGSFALVSKLTVDKSRWQQGNVFSCSVMHEALHNHYTQKSLSLSPGK
chain: not shown
light: DIQMTQSPSSLSASVGDRVTITCSASSSVSYMNWYQQTPGKAPKRWIYDTSKLASGVPSRFSGSGSGTDYTFTISSLQPEDIATYYCQQWSSNPFTFGQGTKLQITRTVAAPSVFIFPPSDEQLKSGTASVVCLLNNFYPREAKVQWKVDNALQSGNSQESVTEQDSKDSTYSLSSTLTLSKADYEKHKVYACEVTHQGLSSPVTKSFNRGEC
- Kd (CD3 on Jurkat T cells [1]): ~5 nM
- Kd (CD3 on Jurkat T cells [2]): ~5 nM

Next, values leading:

- Kd (CD3 on Jurkat T cells [1]): ~30 nM
- Kd (CD3 on Jurkat T cells [2]): ~30 nM
B1: v875 (bispecific antibody)
chain 1: DIQLTQSPASLAVSLGQRATISCKASQSVDYDGDSYLNWYQQIPGQPPKLLIYDASNLVSGIPPRFSGSGSGTDFTLNIHPVEKVDAATYHCQQSTEDPWTFGGGTKLEIKGGGGSGGGGSGGGGSQVQLQQSGAELVRPGSSVKISCKASGYAFSSYWMNWVKQRPGQGLEWIGQIWPGDGDTNYNGKFKGKATLTADESSSTAYMQLSSLASEDSAVYFCARRETTTVGRYYYAMDYWGQGTTVTVSSAAEPKSSDKTHTCPPCPAPELLGGPSVFLFPPKPKDTLMISRTPEVTCVVVDVSHEDPEVKFNWYVDGVEVHNAKTKPREEQYNSTYRVVSVLTVLHQDWLNGKEYKCKVSNKALPAPIEKTISKAKGQPREPQVYTYPPSRDELTKNQVSLTCLVKGFYPSDIAVEWESNGQPENNYKTTPPVLDSDGSFALVSKLTVDKSRWQQGNVFSCSVMHEALHNHYTQKSLSLSPGK
chain 2: not shown

- Kd (CD3 on Jurkat T cells [3]): ~30 nM
- Kd (CD3 on Jurkat T cells [4]): ~30 nM
B2: v6750 (bispecific antibody)
heavy: QVQLQQSGAELVRPGSSVKISCKASGYAFSSYWMNWVKQRPGQGLEWIGQIWPGDGDTNYNGKFKGKATLTADESSSTAYMQLSSLASEDSAVYFCARRETTTVGRYYYAMDYWGQGTTVTVSSASTKGPSVFPLAPSSKSTSGGTAALGCLVKDYFPEPVTVSWNSGALTSGVHTFPAVLQSSGLYSLSSVVTVPSSSLGTQTYICNVNHKPSNTKVDKKVEPKSCDKTHTCPPCPAPELLGGPSVFLFPPKPKDTLMISRTPEVTCVVVDVSHEDPEVKFNWYVDGVEVHNAKTKPREEQYNSTYRVVSVLTVLHQDWLNGKEYKCKVSNKALPAPIEKTISKAKGQPREPQVYVYPPSRDELTKNQVSLTCLVKGFYPSDIAVEWESNGQPENNYKTTPPVLDSDGSFALVSKLTVDKSRWQQGNVFSCSVMHEALHNHYTQKSLSLSPG
chain: not shown
light: not shown
